From paper PMC6486544 (Nucleic Acids Research, 2019) come the findings set out here.

One test has as its target GB1-U1A (1-282) (UniProt P09012 1-282). The test can be described thus: NMR titration.
In another test the target is U1A RRM1 (1-126) (UniProt P09012 1-126). Put plainly: NMR titration.
Sequence of U1A RRM1 (1-126) (P09012 1-126): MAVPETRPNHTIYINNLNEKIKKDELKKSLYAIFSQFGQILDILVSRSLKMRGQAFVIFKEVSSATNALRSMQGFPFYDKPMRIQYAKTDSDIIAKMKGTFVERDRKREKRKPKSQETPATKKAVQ

Sequence of GB1-U1A (1-282) (P09012 whole entry): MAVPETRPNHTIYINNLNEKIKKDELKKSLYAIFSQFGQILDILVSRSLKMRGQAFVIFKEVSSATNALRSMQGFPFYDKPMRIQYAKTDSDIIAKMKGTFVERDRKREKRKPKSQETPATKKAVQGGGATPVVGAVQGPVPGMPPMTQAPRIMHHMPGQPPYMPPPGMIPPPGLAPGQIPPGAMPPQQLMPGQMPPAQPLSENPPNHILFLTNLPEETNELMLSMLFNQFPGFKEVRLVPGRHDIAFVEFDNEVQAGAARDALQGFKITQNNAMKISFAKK

B1: GB1-hSAM68 (C2) (domain or fragment, human, UniProt Q07666 365-443, looked up)
chain: TYEEYGYDDTYAEQSYEGYEGYYSQSQGDSEYYDYGHGEVQDSYEAYGQDDWNGTRPSLKAPPARPVKGAYREHPYGRY
Consider B1, for which the binding result in the test with GB1-U1A (1-282) and with U1A RRM1 (1-126) was “binds” in each case.
